Results taken from PMC3406927.

Tests used:
[1] = molecular target: drTLR5-ECD (zebrafish, Danio rerio); test: fluorescence polarisation
[2] = molecular target: TLR5-N14VLR (zebrafish, Danio rerio | hagfish) (UniProt B3DIN1); test: fluorescence polarisation

With “CBLB502-ΔD0 (from UniProt Q06971 1-505) (ligand)” the fold change in binding affinity (against CBLB502) [1] was 2 to 3 fold and the fold change in binding affinity (against CBLB502) [2] was 2 to 3 fold.
